Test results reported in publication PMC7949046, “Human genetic variants disrupt RGS14 nuclear shuttling and regulation of LTP in hippocampal neurons” (The Journal of Biological Chemistry, 2020).

Molecular target: T1, purified XPO1-GST (GST-CRM1, Exportin 1) (human, UniProt O14980 1-1071)
T1 construct: Results and legend name the protein of the pull-down XPO1-GST / GST-XPO1, but the methods say that CRM1/XPO1 was cleaved from the beads with TEV protease; also called GST-XPO1; CRM1/XPO1; source: E. coli BL21, purified (glutathione Sepharose 4B)
T1 sequence (O14980 whole entry): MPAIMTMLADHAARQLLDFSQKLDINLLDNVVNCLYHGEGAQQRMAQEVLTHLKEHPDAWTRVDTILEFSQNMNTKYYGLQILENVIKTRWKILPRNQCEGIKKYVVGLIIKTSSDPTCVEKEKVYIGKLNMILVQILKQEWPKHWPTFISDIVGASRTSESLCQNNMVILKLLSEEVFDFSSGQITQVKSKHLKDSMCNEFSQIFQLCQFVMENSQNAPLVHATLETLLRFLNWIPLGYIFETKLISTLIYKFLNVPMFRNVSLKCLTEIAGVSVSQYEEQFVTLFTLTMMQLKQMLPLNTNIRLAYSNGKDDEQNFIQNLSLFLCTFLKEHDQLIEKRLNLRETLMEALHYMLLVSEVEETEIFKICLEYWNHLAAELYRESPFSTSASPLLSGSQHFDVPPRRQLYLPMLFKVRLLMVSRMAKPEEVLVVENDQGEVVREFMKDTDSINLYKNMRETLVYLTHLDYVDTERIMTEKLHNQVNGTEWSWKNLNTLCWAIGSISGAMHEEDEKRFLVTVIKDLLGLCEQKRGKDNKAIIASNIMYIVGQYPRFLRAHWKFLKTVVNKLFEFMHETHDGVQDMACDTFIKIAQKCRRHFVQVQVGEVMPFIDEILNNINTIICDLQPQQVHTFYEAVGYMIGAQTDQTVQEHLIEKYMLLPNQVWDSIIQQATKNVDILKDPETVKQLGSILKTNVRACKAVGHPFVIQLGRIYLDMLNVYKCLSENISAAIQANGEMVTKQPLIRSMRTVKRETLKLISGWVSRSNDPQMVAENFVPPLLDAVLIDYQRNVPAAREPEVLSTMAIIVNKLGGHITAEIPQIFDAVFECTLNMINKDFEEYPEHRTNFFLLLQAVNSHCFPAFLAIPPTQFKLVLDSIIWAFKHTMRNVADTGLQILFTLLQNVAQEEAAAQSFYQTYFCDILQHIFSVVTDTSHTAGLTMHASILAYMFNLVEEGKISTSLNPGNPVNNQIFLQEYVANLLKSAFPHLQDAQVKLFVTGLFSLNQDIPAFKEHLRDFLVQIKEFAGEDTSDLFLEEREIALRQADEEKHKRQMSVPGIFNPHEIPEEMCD
Experiment: pull-down; purified RGS14 mixed 2 h with purified XPO1-GST and His-Ran Q69L-GTP; His-Ran captured on Ni-NTA; Coomassie and immunoblot
Conditions: both partners purified

B1: recombinant RGS14 WT, purified from E. coli (natural protein, rat, UniProt O08773 1-544, looked up)
chain: MPGKPKHLGVPNGRMVLAVSDGELTSTSGSQAQGEGRGSSLSIHSLPSGPSSPFSTDEQPVASWAQSFERLLQDPRGLAYFTEFLKKEFSAENVTFWQACERFQQIPASDTKQLAQEAHNIYHEFLSSQALSPVNIDRQAWLSEEVLAQPRPDMFRAQQLQIFNLMKFDSYARFVKSPLYQECLLAEAEGRPLREPGSSHLGSPDTARKKPKLKPGKSLPLGVEELGQLPLAEGRPLRKSFRREMPGGAVNSALRRESQGSLNSSASLDLGFLAFVSSKSESHRKSLGSGEGESESRPGKYCCVYLPDGTASLALARPGLTIRDMLAGICEKRGLSLPDIKVYLVGKEQKALVLDQDCTVLADQEVRLENRITFQLELVGLERVVRISAKPTKRLQEALQPILAKHGLSLDQVVLHRPGEKQLVDLENLVSSVASQTLVLDTLPDAKTREASSIPPCRSQGCLPRTQTKDSHLPPLSSSLSVEDASGSTGKRQTCDIEGLVELLNRVQSSGAHDQRGLLRKEDLVLPEFLQLPSQRPGSQEAPP
notes: RGS14, rat; expressed as MBP-TEV-RGS14 (the constructs paragraph names pLic-GST); The methods call the fusion MBP-TEV-RGS14 but purify it on a glutathione column and name the vector pLic-GST; the carrier may have been GST; also called WT RGS14; not shown: MBP, N-terminal, cleaved
Question: Does B1 bind?
Answer: Result: binds
